Experimental data from US20230194545A1 (SEATTLE CHILDREN S HOSPITAL D B A SEATTLE CHILDREN S …, published 2023).

Biological target: T1, WASp 289-304 signature peptide (human)
T1 construct: Endogenous tryptic peptide released from human dried blood spot digests
T1 peptide: LIYDFIEDQGGLEAVR
Assay: immuno-SRM: peptide enrichment from normal control DBS digests, quantified by LC-SRM-MS

B1: Anti-WASp 289 monoclonal antibody (antibody, V domains shown)
VH: QSVEESGGRLVTPGTPLTLTCTVSGFSLSSSDMTWVRQAPGKGLEYIGYMSSNDRPYYASWANGRFTISKTSTTVTLKITSPTTEDTATYFCCRGVLGTRSIHIWGPGTLVTVSL
VL: IVMTQTPSPVSAAVGGTVTINCQASESVYSDNRLSWYQQKPGQPPKQLIYGASTLASEVSSRFKGSGSGTQFTLTINDVVCDDAATYYCAGYKSSNQDGIGFGGGTEVVVKG
modifications: In the assay the antibody was chemically cross-linked (DMP) to Protein G magnetic beads; the letters do not carry this.
notes: Rabbit monoclonal antibody raised against the KLH-conjugated peptide; The printed light chain holds an X near its C-terminus; In the assay the antibody was cross-linked to Protein G magnetic beads
binding result: binds
